One block for each molecule: values may come before it.
Tests used:
[1] = target: Kuenenia stuttgartiensis hydroxylamine oxidase (Kuenenia stuttgartiensis) (UniProt Q1PX48)
purified protein = substrate: NO; assay: purified protein; format: biochemical, Candidatus Kuenenia stuttgartensis; conditions: electron acceptor 50 μM bovine cytochrome c, 20 mM potassium phosphate pH 7.0, 37 °C, kcat per KsHAO trimer

Vmax NH2OH of hydroxylamine oxidation by KsHAO with 50 μM Kustc0563 as the electron acceptor (reduction of the acceptor followed at 550 nm) [1]: 15.8 µmol/min/mg
kcat NH2OH (KsHAO trimer) of hydroxylamine oxidation by KsHAO with 50 μM Kustc0563 as the electron acceptor [1]: 48.4 s^–1
Molecule: Kustc0563nt (Kustc0563 after cleavage of the N-terminal His-tag) (natural protein)

Vmax NH2OH of hydroxylamine oxidation by KsHAO with 50 μM BtCytc as the electron acceptor (reduction of the acceptor followed at 550 nm) [1]: 2.7 µmol/min/mg
kcat NH2OH (KsHAO trimer) of hydroxylamine oxidation by KsHAO with 50 μM BtCytc as the electron acceptor [1]: 8.4 s^–1
Molecule: bovine (Bos taurus) mitochondrial cytochrome c (from UniProt P62894 1-105) (natural protein)

B1: KsHAO (Candidatus Kuenenia stuttgartensis) (protein)
chain: CAMENGVAMAEGPTFQDVASQVFGQPVGPDNDGTLYIFGLTAKYTEPEYVDGRGPYKSFLKMLPSIRWYDPEHYWTNGSQTEGVFKNEECVLCHTVQTPTIVNDWKQSSHGSKDIRRGIGIKKDGKPVEDLVGCADCHGNNHQKLEMPTYKLCNDCHPKETAEHRAGGLGSHTHAYTVNVLEFSWHVGKPAEEVTGCAHCHAIAENRCSGCHTRHKFDPAEARKPTACRVCHMGIDHDEWAMYNTSIHGALYEAESARMDWGKKLKKGNYRVPTCAYCHMQNGDHNPQRFGTIYSDMGMFQVDRGAPKHKAKRDSWIKLCQDCHSPRFAADKLKEMDAGVNLSFTKWREAAAVIVGCYLDGVVDPMPEGSAPDWYGHYTFSLLPGGDPRFYATSNLERLGLEMICYLTGNVYKAYAHMSMYNQTYGNGSAFEQDRKLVEIKTEAAKLRRFAAIEKKIGLEHKSADFWKHGEYLDLLPGWKRKPGDVDVEWFKRTDIPHRANADAGVEIHH
notes: octaheme c-type cytochrome, trimeric; preparation not described
Km (purified protein): 5.8 ± 0.7 µM
Vmax (purified protein): 2.7 µmol/min/mg
kcat (purified protein): 8.4 s⁻¹
kcat/Km (purified protein): 1.4e+06 M⁻¹ s⁻¹

From PMC8388095, “Specificity of Small c-Type Cytochromes in Anaerobic Ammonium Oxidation” (ACS Omega, 2021)
